The supplement of paper PMC10065799, “High-throughput profiling of sequence recognition by tyrosine kinases and SH2 domains using bacterial peptide display” (eLife, 2023)

Columns and labels:
[1] = target: Grb2 SH2 (UniProt P62993); experiment: SH2 binding enrichment of the phosphorylated peptide, bacterial display (enrichment ratio); higher = better substrate or ligand; peptides without Tyr show the background
[2] = target: c-Src SH2; experiment: as above
[3] = target: SHP2-C SH2; experiment: as above
[4] = target: Fes (UniProt P07332); experiment: phosphorylation enrichment, bacterial display (enrichment ratio); higher = better substrate or ligand; peptides without Tyr show the background
[5] = target: EPHB2 (UniProt P29323); experiment: as above
Sequence of EPHB2 (P29323 whole entry, looked up): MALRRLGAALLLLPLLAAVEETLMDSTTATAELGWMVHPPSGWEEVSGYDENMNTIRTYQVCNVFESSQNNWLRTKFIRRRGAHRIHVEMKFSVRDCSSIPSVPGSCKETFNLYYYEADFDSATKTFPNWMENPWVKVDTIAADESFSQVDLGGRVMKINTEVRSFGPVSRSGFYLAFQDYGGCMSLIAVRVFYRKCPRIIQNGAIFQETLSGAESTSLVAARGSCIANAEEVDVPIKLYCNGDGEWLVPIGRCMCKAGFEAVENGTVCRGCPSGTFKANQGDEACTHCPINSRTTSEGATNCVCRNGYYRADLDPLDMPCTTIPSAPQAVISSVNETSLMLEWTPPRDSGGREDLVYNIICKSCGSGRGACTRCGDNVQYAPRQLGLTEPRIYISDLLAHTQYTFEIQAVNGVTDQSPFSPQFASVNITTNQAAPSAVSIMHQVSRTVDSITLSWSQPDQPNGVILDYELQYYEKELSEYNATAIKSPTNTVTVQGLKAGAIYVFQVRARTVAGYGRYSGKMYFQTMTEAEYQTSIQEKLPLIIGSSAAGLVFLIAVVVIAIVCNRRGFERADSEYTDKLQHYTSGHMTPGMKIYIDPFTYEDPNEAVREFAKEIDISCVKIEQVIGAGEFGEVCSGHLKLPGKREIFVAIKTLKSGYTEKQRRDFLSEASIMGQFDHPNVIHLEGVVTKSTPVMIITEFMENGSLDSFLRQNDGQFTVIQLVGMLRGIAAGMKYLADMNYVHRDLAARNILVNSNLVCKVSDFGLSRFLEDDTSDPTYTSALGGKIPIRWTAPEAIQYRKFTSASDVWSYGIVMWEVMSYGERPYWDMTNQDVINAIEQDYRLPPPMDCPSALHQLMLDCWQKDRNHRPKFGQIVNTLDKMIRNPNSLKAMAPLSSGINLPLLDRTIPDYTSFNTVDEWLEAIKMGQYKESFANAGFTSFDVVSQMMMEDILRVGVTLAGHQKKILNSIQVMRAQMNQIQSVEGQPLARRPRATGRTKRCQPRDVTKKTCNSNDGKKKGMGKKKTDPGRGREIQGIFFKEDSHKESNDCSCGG

[6] = test system: c-Src; experiment: as above
[7] = target: MERTK (UniProt Q12866); experiment: as above
[8] = target: Hck (UniProt P08631); experiment: as above
Sequence of Hck (P08631 whole entry, looked up): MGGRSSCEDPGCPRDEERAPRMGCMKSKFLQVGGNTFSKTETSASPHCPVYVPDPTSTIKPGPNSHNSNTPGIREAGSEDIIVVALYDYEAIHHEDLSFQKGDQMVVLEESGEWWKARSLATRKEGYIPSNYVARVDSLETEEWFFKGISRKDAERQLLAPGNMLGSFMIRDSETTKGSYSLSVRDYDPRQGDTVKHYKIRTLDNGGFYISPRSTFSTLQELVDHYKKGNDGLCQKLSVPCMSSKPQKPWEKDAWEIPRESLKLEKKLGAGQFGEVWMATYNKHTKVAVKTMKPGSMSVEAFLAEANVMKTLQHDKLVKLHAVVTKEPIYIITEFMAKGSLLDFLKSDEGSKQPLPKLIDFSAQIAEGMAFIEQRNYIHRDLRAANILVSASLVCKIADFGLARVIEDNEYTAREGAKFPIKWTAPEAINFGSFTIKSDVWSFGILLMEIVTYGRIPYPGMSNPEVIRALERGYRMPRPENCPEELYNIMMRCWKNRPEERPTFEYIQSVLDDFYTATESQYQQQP

[9] = target: FGFR3 (UniProt P22607); experiment: as above
Sequence of FGFR3 (P22607 whole entry, looked up): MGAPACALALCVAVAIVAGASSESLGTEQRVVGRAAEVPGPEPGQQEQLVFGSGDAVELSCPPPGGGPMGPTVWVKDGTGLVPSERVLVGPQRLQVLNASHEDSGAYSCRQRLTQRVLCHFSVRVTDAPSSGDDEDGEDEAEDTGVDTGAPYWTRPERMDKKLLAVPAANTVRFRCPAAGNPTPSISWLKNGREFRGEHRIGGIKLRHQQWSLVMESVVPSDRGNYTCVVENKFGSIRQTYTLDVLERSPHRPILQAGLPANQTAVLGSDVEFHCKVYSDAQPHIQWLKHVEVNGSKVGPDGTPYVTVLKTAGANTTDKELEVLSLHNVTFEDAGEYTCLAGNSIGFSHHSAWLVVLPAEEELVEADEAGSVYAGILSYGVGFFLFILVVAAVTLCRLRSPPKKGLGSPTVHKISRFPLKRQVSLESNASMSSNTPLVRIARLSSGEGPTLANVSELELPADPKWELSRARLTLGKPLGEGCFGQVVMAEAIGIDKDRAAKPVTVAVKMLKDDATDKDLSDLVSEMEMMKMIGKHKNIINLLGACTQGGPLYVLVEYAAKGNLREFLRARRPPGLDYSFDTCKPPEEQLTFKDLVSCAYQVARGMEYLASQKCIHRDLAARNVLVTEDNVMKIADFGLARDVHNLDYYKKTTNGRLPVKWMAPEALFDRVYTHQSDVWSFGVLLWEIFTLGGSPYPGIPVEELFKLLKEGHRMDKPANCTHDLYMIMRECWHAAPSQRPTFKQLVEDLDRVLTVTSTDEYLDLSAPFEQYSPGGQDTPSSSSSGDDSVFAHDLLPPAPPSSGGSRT

[10] = target: FGFR1 (UniProt P11362); experiment: as above
Sequence of FGFR1 (P11362 whole entry, looked up): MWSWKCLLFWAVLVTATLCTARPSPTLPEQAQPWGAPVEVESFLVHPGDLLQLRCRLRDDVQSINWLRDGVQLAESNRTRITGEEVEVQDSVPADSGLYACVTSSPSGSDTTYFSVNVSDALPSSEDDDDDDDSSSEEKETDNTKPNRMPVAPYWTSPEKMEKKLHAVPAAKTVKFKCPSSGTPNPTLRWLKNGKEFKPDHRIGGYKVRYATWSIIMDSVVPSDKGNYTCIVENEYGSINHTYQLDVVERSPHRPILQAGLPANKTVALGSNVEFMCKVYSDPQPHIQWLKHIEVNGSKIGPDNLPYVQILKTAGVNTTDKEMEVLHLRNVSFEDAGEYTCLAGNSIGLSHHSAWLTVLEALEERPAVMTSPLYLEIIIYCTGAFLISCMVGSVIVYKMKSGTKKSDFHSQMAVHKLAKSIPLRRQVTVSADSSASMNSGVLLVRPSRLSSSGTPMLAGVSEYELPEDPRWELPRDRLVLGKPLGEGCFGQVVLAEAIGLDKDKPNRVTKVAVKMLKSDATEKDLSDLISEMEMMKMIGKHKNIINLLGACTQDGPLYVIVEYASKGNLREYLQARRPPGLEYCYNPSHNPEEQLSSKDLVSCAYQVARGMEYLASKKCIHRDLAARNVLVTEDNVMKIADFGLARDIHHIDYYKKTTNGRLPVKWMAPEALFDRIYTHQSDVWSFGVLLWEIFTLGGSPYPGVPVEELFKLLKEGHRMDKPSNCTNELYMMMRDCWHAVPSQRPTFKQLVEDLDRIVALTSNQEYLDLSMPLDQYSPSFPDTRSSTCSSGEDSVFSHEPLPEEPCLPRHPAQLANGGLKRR

[11] = target: Jak2 (UniProt O60674); experiment: as above
Sequence of Jak2 (O60674 whole entry, looked up): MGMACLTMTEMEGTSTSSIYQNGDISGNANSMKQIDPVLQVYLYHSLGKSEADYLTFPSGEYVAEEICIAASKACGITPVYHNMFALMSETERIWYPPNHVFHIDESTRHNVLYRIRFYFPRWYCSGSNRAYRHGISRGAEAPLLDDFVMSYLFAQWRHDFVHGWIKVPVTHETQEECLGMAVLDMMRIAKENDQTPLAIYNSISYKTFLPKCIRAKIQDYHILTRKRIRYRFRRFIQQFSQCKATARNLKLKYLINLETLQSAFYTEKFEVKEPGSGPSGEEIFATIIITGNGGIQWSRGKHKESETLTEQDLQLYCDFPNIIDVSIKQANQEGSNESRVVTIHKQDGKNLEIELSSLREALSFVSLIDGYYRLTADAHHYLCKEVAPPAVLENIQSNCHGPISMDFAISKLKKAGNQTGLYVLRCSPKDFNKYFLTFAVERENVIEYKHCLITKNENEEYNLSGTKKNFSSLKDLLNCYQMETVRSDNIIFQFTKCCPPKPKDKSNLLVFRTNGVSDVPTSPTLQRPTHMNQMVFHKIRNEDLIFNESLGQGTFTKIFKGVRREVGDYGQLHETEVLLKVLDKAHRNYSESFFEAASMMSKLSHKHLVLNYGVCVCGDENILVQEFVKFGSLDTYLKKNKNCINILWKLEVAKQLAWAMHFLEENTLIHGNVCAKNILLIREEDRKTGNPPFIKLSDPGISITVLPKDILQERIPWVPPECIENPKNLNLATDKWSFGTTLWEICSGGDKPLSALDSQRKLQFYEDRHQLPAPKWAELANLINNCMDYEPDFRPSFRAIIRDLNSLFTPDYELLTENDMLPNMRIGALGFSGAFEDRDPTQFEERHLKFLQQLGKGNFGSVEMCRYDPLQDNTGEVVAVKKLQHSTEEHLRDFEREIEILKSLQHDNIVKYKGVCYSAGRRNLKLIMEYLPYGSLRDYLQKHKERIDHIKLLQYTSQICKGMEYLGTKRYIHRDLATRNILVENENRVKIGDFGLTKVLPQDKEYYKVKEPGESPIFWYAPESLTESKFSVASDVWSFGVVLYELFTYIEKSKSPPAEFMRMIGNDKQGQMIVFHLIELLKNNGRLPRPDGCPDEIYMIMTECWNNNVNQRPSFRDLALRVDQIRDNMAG

[12] = target: EPHB1 (UniProt P54762); experiment: as above
[13] = target: Fyn (UniProt P06241); experiment: as above
Sequence of Fyn (P06241 whole entry, looked up): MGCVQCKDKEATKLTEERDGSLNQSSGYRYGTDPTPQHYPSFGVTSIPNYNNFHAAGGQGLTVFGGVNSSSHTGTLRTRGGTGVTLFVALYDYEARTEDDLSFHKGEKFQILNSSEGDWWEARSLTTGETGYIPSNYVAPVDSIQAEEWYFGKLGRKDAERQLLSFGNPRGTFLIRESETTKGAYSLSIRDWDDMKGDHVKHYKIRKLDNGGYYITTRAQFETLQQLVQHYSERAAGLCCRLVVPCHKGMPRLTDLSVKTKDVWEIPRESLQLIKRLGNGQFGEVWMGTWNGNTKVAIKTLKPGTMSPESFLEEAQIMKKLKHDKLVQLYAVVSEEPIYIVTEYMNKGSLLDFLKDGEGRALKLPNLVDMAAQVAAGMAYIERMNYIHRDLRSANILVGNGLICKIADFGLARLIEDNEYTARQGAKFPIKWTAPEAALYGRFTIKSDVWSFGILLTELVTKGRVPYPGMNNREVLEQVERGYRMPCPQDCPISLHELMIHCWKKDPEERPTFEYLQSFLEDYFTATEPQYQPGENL

[14] = test system: c-Abl (mouse); experiment: as above
[15] = test system: AncSZ; experiment: as above
[16] = test system: Fer (mouse); experiment: as above
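Wherever SH2 binding enrichment of the phosphorylated peptide, bacterial display is given: peptide library displayed on the E. coli surface as eCPX fusions, selected cells deep-sequenced, score is each peptide's frequency after selection divided by its frequency in the input.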
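Wherever phosphorylation enrichment, bacterial display is given: 11-residue human phosphosite peptides and single-mutation variants displayed on the E. coli surface, counted by deep sequencing, each peptide's frequency after selection divided by its frequency in the unselected input library; frequency after pTyr selection over input frequency; kinase dosed for 20-30% of maximal phosphorylation in three min.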

Row | Sequence | SH2 binding enrichment [1] | SH2 binding enrichment [2] | SH2 binding enrichment [3] | phosphorylation enrichment [4] | phosphorylation enrichment [5] | phosphorylation enrichment [6] | phosphorylation enrichment [7] | phosphorylation enrichment [8] | phosphorylation enrichment [9] | phosphorylation enrichment [10] | phosphorylation enrichment [11] | phosphorylation enrichment [12] | phosphorylation enrichment [13] | phosphorylation enrichment [14] | phosphorylation enrichment [15] | phosphorylation enrichment [16]
1 | AFGNLYGSRKQ [YIPF7_Y59_YF] | 0.788 | 0.35 | 0.376 | 0.55 | 0.531 | 1.09 | 0.519 | 2.93 | 0.398 | 0.397 | 0.505 | 0.357 | 0.718 | 0.657 | 0.526 | 0.409
2 | AFPVSYSSPGA [RET_Y687_S690P] | 0.685 | 0.615 | 0.679 | 0.616 | 0.478 | 0.475 | 0.512 | 0.422 | 0.466 | 0.423 | 0.508 | 0.442 | 0.518 | 0.572 | 0.704 | 0.468
3 | AGAIIYTSRFQ [PFAS_Y538] | 1.08 | 0.464 | 1.1 | 0.839 | 0.674 | 0.929 | 0.568 | 0.76 | 0.504 | 0.398 | 0.686 | 0.486 | 0.58 | 0.72 | 0.748 | 0.506
4 | AGEGSYALDSE [PES1_Y265_T264S] | 0.977 | 0.668 | 0.649 | 1.19 | 0.629 | 0.538 | 0.568 | 0.747 | 0.719 | 0.644 | 1.05 | 0.461 | 0.946 | 0.64 | 1.24 | 0.608
5 | AGEGTYALDSE [PES1_Y265] | 0.928 | 0.617 | 0.435 | 1.04 | 0.511 | 0.935 | 0.434 | 0.528 | 0.643 | 0.484 | 0.878 | 0.576 | 0.984 | 0.816 | 0.972 | 0.5
6 | AGQEDYDRLRS [RHOA_Y66_P71S] | 0.596 | 0.554 | 0.657 | 1.38 | 0.513 | 0.609 | 0.466 | 0.638 | 0.639 | 0.475 | 1.05 | 0.582 | 0.555 | 0.741 | 0.96 | 0.795
7 | AHAGEYGADAL [HBA1_Y25_E28D] | 0.708 | 0.448 | 0.61 | 0.653 | 0.416 | 0.357 | 0.373 | 0.436 | 0.41 | 0.392 | 0.578 | 0.401 | 0.414 | 0.776 | 0.606 | 0.312
8 | AIDVGYRHIDC [AKR1B1_Y40] | 1.04 | 0.98 | 1.12 | 0.844 | 0.531 | 0.411 | 0.366 | 0.457 | 0.622 | 0.476 | 0.635 | 0.419 | 0.466 | 0.629 | 0.637 | 0.44
9 | AIFRRYSKFFD [SH3PXD2B_Y45_YF] | 0.56 | 0.475 | 0.572 | 1.13 | 0.565 | 0.626 | 0.572 | 0.54 | 0.587 | 0.598 | 1.04 | 0.526 | 0.582 | 0.773 | 1.03 | 0.408
10 | AKFLGYPPPEI [KDR_Y357_YF] | 0.794 | 0.476 | 0.619 | 0.902 | 0.413 | 0.436 | 0.412 | 0.488 | 0.609 | 0.499 | 0.565 | 0.474 | 0.426 | 0.627 | 0.773 | 0.459
11 | AKVKPYVNGTS [IBTK_Y1064] | 1.11 | 0.559 | 0.878 | 0.559 | 0.419 | 0.412 | 0.357 | 0.402 | 0.47 | 0.421 | 0.58 | 0.41 | 0.486 | 0.778 | 0.606 | 0.461
12 | ALAHKYRGGGG [HBD_Y146_H147R] | 0.804 | 0.535 | 0.598 | 0.495 | 0.362 | 0.432 | 0.309 | 0.333 | 0.364 | 0.422 | 0.351 | 0.311 | 0.335 | 0.471 | 0.404 | 0.315
13 | ALTRSYIRERV [CYP2C8_Y243_K247R] | 0.607 | 0.395 | 0.51 | 0.536 | 0.457 | 0.451 | 0.391 | 0.493 | 0.423 | 0.421 | 0.58 | 0.373 | 0.334 | 0.458 | 0.768 | 0.373
14 | ALVFLYFCIIF [SIGLEC12_Y494] | 1.91 | 1.36 | 1.48 | 1.16 | 0.483 | 0.741 | 0.636 | 0.964 | 0.803 | 0.58 | 1.01 | 0.397 | 0.552 | 0.957 | 1.04 | 0.6
15 | LVKDGYQTAQP [CSF1R_Y873_M875T] | 0.909 | 1.35 | 0.307 | – | – | 1.29 | – | – | – | – | 1.27 | – | – | 0.544 | – | –
